Test results: patent publication US20230329245A1, “COMPOSITIONS AND METHODS OF USE THEREOF” (Curie Co. Inc., priority 2020, published 2023)
Where “and” joins values, the source holds several entries; their conditions need not be identical. Equal values may be shown once.

Legend:
Type in all cases: cell-based
E. coli ATCC 8739 = assay: Growth inhibition of E. coli culture in LB (OD600 / BacTiter-Glo); settings: E. coli ATCC 8739; 950 μg/mL
Protocol: For MIC determination of bacterial cultures, E. coli ATCC 8739, DH5-alpha, DH10-beta, and B. subtilis BGSC 1A1276 was grown overnight (16-18 hours) in LB broth at 37° C. The following day, the cell density of the saturated cultures was calculated using OD600 and cultures were diluted to 10^4 to 10^6 CFU/mL in sterile LB media to generate the inoculum, and 90 μL of the inoculum was combined with 10 μL of serially diluted Tgase SEQ ID NO:1 at a range of 0.0001-0.01 weight percent in the presence or absence of 0.003% lysozyme (100-fold lower than the effective concentration). Growth curves were measured by OD600 on a BioTek® Synergy Plate Reader. Optionally, the following day, a cell viability assay such as BacTiter-Glo™ (Promega®) following manufacturer's protocols) could be used to assess cell viability. A decrease in OD600 or luminescence indicated a decrease in cell viability. Results are presented as a percent reduction in cell count relative to an untreated culture. All test conditions were performed in triplicate.
E. coli ATCC 8739 was grown overnight in LB broth at 37° C. The following day, the cell density of the saturated cultures was calculated using OD600 and cultures were diluted to 10^4 to 10^6 CFU/mL in sterile LB media to generate the inoculum, and 90 μL of the inoculum was combined with 10 μL of serially diluted Tgase SEQ ID NO:6 at a range of 0.001-0.1 weight percent in the presence or absence of chemical preservatives at concentrations above and below the calculated MIC value. A single concentration (at the MIC) of the chemical preservative and static concentrations of Tgase SEQ ID NO:6 (400 μg/mL, 0.04% w/v) are presented in Table 8 as representative examples. Growth curves were measured by OD600 on a BioTek® Synergy Plate Reader and a cell viability assay (BacTiter-Glo™, Promega®, following manufacturer's protocols) was used to assess cell viability. A decrease in OD600 or luminescence indicated a decrease in cell viability. Results are presented as a percent reduction in cell count relative to an untreated culture. […]

S. aureus ATCC 6538 = assay: MIC determination, S. aureus; settings: CAMHB pH 7.3, 37° C., 18 to 20 hours, duplicate
Protocol: A variant form of Streptomyces mobaraensis transglutaminase having the amino acid sequence depicted in SEQ ID NO:6 was prepared by literature methods with a hexa-his-tag to aid in purification (Javitt, et al. (2017) BMC Biotechnol. 17:23). The cells were grown in shake flasks, lysed by homogenization, and the Tgase variant (SEQ ID NO:6) was isolated from the cell debris by centrifugation. The resulting semi-purified enzyme (clarified lysate) were compared on an SDS-PAGE gel, by spectroscopy, and activity for concentration of active enzyme. The Tgase variant (SEQ ID NO:6) was further purified by affinity column on a Ni-IMAC resin prior to MIC assay. Tgase activity was measured in the examples herein using a colorimetric hydroxamate activity assay (Folk and Cole (1965) J Biol Chemistry 240(7):2951-2960). The enzyme was diluted to a working stock concentration of 2 mg/mL in CAMHB or RPMI media (bacterial or fungal media). This was then 2-fold serial diluted ten times in the appropriate media in a 96-well master plate to generate 2× starting concentrations for MIC testing.
Strains were acquired from the American Type Culture Collection (ATCC) (Manassas, VA) and maintained as −80° C. frozen glycerol stocks: S. aureus ATCC 6538, E. coli ATCC 8739, P. aeruginosa ATCC 9027, C. albicans ATCC 10231, and A. brasiliensis ATCC 16404. […]

[1] = system: C. parapsilosis ATCC 22019; assay: MIC determination, C. parapsilosis; settings: duplicate, listed as Tgase variant (SEQ ID NO: 6)
C. albicans ATCC 10231 = assay: Minimum fungicidal concentration (MFC), C. albicans; settings: no colonies recovered on SDA, duplicate, listed as Tgase variant (SEQ ID NO: 6)
Protocol: Minimum fungicidal concentration (MFC) was determined by plating 10 microliters of liquid from each MFC test solution on the appropriate agar media for each test strain. The liquid was allowed to air dry in a biosafety cabinet, then the agar plates were incubated under the appropriate conditions: A. brasiliensis and C. albicans were grown on Sabouraud Dextrose Agar (SDA) plates. A. brasiliensis was grown at 25° C. for 5 to 7 days, while C. albicans was grown at 37° C. for 24 to 48 hours. Colony formation was then assessed. MFC is defined as the lowest concentration of the Tgase (SEQ ID NO:6) in which no colonies were recovered.

[2] = system: Yeast or bacterial starter cultures; assay: Tgase biocidal activity on yeast or bacterial cultures (Example 2); settings: where biocidal activity could be observed with both enzymes
Protocol: A variant form of Streptomyces mobaraensis transglutaminase having the amino acid sequence depicted in SEQ ID NO:6 was prepared by literature methods (Javitt, et al. (2017) BMC Biotechnol. 17:23) as previously described. Tgase activity was measured using the colorimetric hydroxamate activity assay (Folk and Cole (1965) J Biol Chemistry 240(7):2951-2960). Tgase cytotoxic activity was assessed either using OD600 or a commercially available kit (BacTiter-Glo™, Promega®, following manufacturer's protocol).
Yeast or bacterial starter cultures were grown as described previously. Tgase (SEQ ID NO:6) was added to each culture at 0.001-1 weight percent. The cultures were grown overnight at 30° C.-37° C. and growth curves were measured by a BioTek® Synergy Plate Reader.

B1: Tgase (SEQ ID NO: 6): variant Streptomyces mobaraensis transglutaminase (SEQ ID NO:2) with N-terminal Methionine, C-terminal peptide linker and hexa-His-Tag (protein)
chain: MDPDDRVTPPAEPLDRMPDPYRPSYGRAETVVNNYIRKWQQVYSHRDGRKQQMTEEQREWLSYGCVGVTWVNSGQYPTNRLAFASFDEDRFKNELKNGRPRSGETRAEFEGRVAKESFDEEKGFQRAREVASVMNRALENAHDESAYLDNLKKELANGNDALRNEDARSPFYSALRNTPSFKERNGGNHDPSRMKAVIYSKHFWSGQDRSSSADKRKYGDPDAFRPAPGTGLVDMSRDRNIPRSPTSPGEGFVNFDYGWFGAQTEADADKTVWTHGNHYHAPNGSLGAMHVYESKFRNWSEGYSDFDRGAYVITFIPKSWNTAPDKVKQGWPLEHHHHHH
- growth inhibition (E. coli ATCC 8739): 85.0%
- MIC (S. aureus ATCC 6538): >1,000 μg/mL
- MIC [1]: 250 µg/mL and 125 µg/mL
- MFC (C. albicans ATCC 10231): 31.25 µg/mL and 62.5 µg/mL
- potency relative to Tgase SEQ ID NO:1 [2]: 10 fold
